Reference: US20200407442A1 (WUXI BIOLOGICS IRELAND, published 2020)
Numbering of substitutions follows the chain as printed.

T1: human LAG-3-ECD.D12.mFc mutant A139G (human, UniProt P18627 37-252)
T1 construct: construct limits as for m26
T1 chain: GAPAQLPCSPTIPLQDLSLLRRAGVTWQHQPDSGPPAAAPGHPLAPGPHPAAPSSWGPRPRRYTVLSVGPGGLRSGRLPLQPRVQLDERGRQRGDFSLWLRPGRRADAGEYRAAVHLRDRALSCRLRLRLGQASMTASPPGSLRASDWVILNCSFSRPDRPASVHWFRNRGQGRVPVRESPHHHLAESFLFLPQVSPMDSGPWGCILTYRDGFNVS

T2: human LAG-3-ECD.D12.mFc mutant A59G (human, UniProt P18627 37-252)
T2 construct: construct limits as for m26
T2 chain: T1 chain with A23G, G103A

T3: human LAG-3-ECD.D12.mFc mutant H65A (human, UniProt P18627 37-252)
T3 construct: Alanine scanning mutant; construct limits as for m26
T3 chain: T1 chain with H29A, G103A

T4: human LAG-3-ECD.D12.mFc mutant G37A (human, UniProt P18627 38-252)
T4 construct: Alanine scanning mutant; construct limits as for m26
T4 sequence: T1 chain with G1A, G103A

T5: human LAG-3-ECD.D12.mFc mutant Y147A (human, UniProt P18627 37-252)
T5 construct: Alanine scanning mutant; construct limits as for m26
T5 chain: T1 chain with G103A, Y111A

T6: human LAG-3-ECD.D12.mFc mutant L153A (human, UniProt P18627 37-252)
T6 construct: Alanine scanning mutant; construct limits as for m26
T6 chain: T1 chain with G103A, L117A

T7: human LAG-3-ECD.D12.mFc mutant D143A (human, UniProt P18627 37-252)
T7 construct: Alanine scanning mutant; construct limits as for m26
T7 chain: T1 chain with G103A, D107A

T8: human LAG-3-ECD.D12.mFc mutant L122A (human, UniProt P18627 37-252)
T8 construct: Alanine scanning mutant; construct limits as for m26
T8 chain: T1 chain with L86A, G103A

B1: 1.53.3-uAb-IgG4k (antibody, V domains shown)
VH: QVQLQQWGAGLLKPSETLSLTCGVYGGSFSGYYWSWIRQPPGMGLEWIGEINHRGNTNYNPSLKSRVTISEDTSKNQFSLRLSSVTAADTAVYFCTRGEDYSDYDYYGDFWGQGTLVTVSS
VL: EIVLTQSPATLSLSQGERATLSCRASQSISSYLAWYQQKPGQAPRLLIYAASNRATGIPARFSGSGSGTDFTLTISSLEPEDFAIYYCQQRSNWPLTFGGGTKVEIK
notes: Fully human antibody from OMT rats; IgG4 kappa by its name
B2: 3.40.19-uAb-IgG4L (antibody, V domains shown)
VH: QLQLQESGPGLVKPSETLSLTCTVSGDSISSTSYYWGWIRQPPGKGLEWIGSFYYSGSTYYNPSLKSRVTISVDTSKNQFSLKLNSVTAADTAVYYCARMQLWSYDVDVWGQGTTVTVSS
VL: QSALTQPASVSGSPGQSITISCTGTSSDVGGYDYVAWYQQHPGKVPKLMIYDVSERPSGVSNRFSGSKSGNTASLTISGLQAEDEADYYCSSYTSTTTLVVFGGGTKLSVL
notes: Fully human antibody from OMT rats; IgG4 lambda by its name; also called 3.40.19-uAb-hIgG4L

Tests used:
Assay in all cases: ELISA, antibody coated, LAG-3 D12.mFc mutant in supernatant, normalised to control mutants
[1] = biological target: T1, human LAG-3-ECD.D12.mFc mutant A139G
Method: (§1) For ELISA binding assay, the antibody 1.53.3-uAb-IgG4k or 3.40.19-uAb-hIgG4L (2 μg/mL) was coated in plates. After interacting with the supernatant that contains quantified LAG-3 mutants or human LAG-3-ECD.D12.mFc protein, HRP conjugated anti-mFc antibody (1:5000; Bethyl, USA) was added as a detection antibody. Absorbance was normalized according to the average absorbance of control mutants. After setting an additional cutoff to the binding fold change (<0.75), the final determined epitope residues were identified.

[2] = biological target: T2, human LAG-3-ECD.D12.mFc mutant A59G
Method: as §1

[3] = biological target: T3, human LAG-3-ECD.D12.mFc mutant H65A
Method: as §1

[4] = biological target: T4, human LAG-3-ECD.D12.mFc mutant G37A
Method: as §1

[5] = biological target: T5, human LAG-3-ECD.D12.mFc mutant Y147A
Method: as §1

[6] = biological target: T6, human LAG-3-ECD.D12.mFc mutant L153A
Method: as §1

[7] = biological target: T7, human LAG-3-ECD.D12.mFc mutant D143A
Method: as §1

[8] = biological target: T8, human LAG-3-ECD.D12.mFc mutant L122A
Method: as §1

Fold Change [1]	Fold Change [2]	Fold Change [3]	Fold Change [4]	Fold Change [5]	Fold Change [6]	Fold Change [7]	Fold Change [8]	Binder
0.708	0.718	0.627	0.558	0.637	0.749	0.671	0.607	B1
0.368	0.542	0.489	0.284	0.19	0.632	0.529	0.391	B2
